# B1: T4 Dda-E94C/C109A/C136A/A360C (SEQ ID NO: 24 with mutations E94C/C109A/C136A/A360C) (protein)
# chain: MTFDDLTEGQKNAFNIVMKAIKEKKHHVTINGPAGTGKTTLTKFIIEALISTGETGIILAAPTHAAKKILSKLSGKEASTIHSILKINPVTYECNVLFEQKEVPDLAKARVLICDEVSMYDRKLFKILLSTIPPWATIIGIGDNKQIRPVDPGENTAYISPFFTHKDFYQCELTEVKRSNAPIIDVATDVRNGKWIYDKVVDGHGVRGFTGDTALRDFMVNYFSIVKSLDDLFENRVMAFTNKSVDKLNSIIRKKIFETDKDFIVGEIIVMQEPLFKTYKIDGKPVSEIIFNNGQLVRIIEAEYTSTFVKARGVPGEYLIRHWDLTVETYGDDEYYREKIKIISSDEELYKFNLFLGKTCETYKNWNKGGKAPWSDFWDAKSQFSKVKALPASTFHKAQGMSVDRAFIYTPCIHYADVELAQQLLYVGVTRGRYDVFYV
# What was measured:
# [1] = target: MspA-(G75S/G77S/L88N/D90N/D91N/D118R/Q126R/D134R/E139K)8
# [2] = target: MspA-((Del-L74/G75/D118/L119)D56N/E57N/E59N/L88N/D90N/D91N/Q126R/D134R/E139K)8
# [3] = target: MspA-((Del-L74/G75/D118/L119)D56N/E57D/E59R/L88N/D90N/D91N/Q126R/D134R/E139K)8
# [4] = target: MspA-((Del-L74/G75/D118/L119)E59N/L88N/D90N/D91N/Q126R/D134R/E139K)8
# [5] = target: MspA-(D56N/E59R/G75S/G77S/L88N/D90N/D91N/D118R/Q126R/D134R/E139K)8
# [6] = target: MspA-((Del-L74/G75/D118/L119)D56W/E59R/L88N/D90N/D91N/Q126R/D134R/E139K)8
# [7] = target: MspA-((Del-N79/F80N113N114)D56N/E59R/G75S/G77S/L88N/D90N/D91N/D118R/Q126R/D134R/E139K)8
# [8] = target: MspA-((Del-L74/G75/D118/L119)D56N/L88N/D90N/D91N/Q126R/D134R/E139K)8
# [9] = target: MspA-((Del-L74/G75/D118/L119)E59R/L88N/D90N/D91N/Q126R/D134R/E139K)8
# [10] = target: MspA-((Del-L74/G75/D118/L119)D56N/E59Y/L88N/D90N/D91N/Q126R/D134R/E139K)8
# [11] = target: MspA-((Del-L74/G75/D118/L119)D56L/E59L/L88N/D90N/D91N/Q126R/D134R/E139K)8
# [12] = target: MspA-((Del-L74/G75/D118/L119)E59Y/L88N/D90N/D91N/Q126R/D134R/E139K)8
# [13] = target: MspA-((Del-L74/G75/D118/L119)E59F/L88N/D90N/D91N/Q126R/D134R/E139K)8
# [14] = target: MspA-((Del-L74/G75/D118/L119)D56F/E59R/L88N/D90N/D91N/Q126R/D134R/E139K)8
protein,measurement,setting,value
B1,Average Signal to Noise (S2N),[1],11.4
same,Mean Current Range,[1],15.5 pA
same,Mean Noise of the Signal,[1],1.35
same,Median Current Range,[1],15.8 pA
same,Median Noise of the Signal,[1],1.35
same,Standard Deviation of the Current Range,[1],2.23
same,Standard Deviation of the Noise of the Signal,[1],0.14
same,Average Signal to Noise (S2N),[2],13
same,Mean Current Range,[2],19 pA
same,Mean Noise of the Signal,[2],1.46
same,Median Current Range,[2],19.2 pA
same,Median Noise of the Signal,[2],1.35
same,Standard Deviation of the Current Range,[2],2.07 pA
same,Standard Deviation of the Noise of the Signal,[2],0.36
same,Average Signal to Noise (S2N),[3],12.9
same,Mean Current Range,[3],15.4 pA
same,Mean Noise of the Signal,[3],1.19
same,Median Current Range,[3],15.4 pA
same,Median Noise of the Signal,[3],1.16
same,Median S2N,[3],11.9
same,Percentage of complement slipping forwards,[3],0.7%
same,Standard Deviation of S2N,[3],0.33
same,Standard Deviation of the Current Range,[3],1.77 pA
same,Standard Deviation of the Noise of the Signal,[3],0.19
same,Average Signal to Noise (S2N),[4],13.3
same,Mean Current Range,[4],14.7 pA
same,Mean Noise of the Signal,[4],1.11
same,Median Current Range,[4],14.7 pA
same,Median Noise of the Signal,[4],1.08
same,Standard Deviation of the Current Range,[4],2.36 pA
same,Standard Deviation of the Noise of the Signal,[4],0.19
same,Average Signal to Noise (S2N),[5],11.9
same,Mean Current Range,[5],15.6 pA
same,Mean Noise of the Signal,[5],1.31
same,Median Current Range,[5],15.6 pA
same,Median Noise of the Signal,[5],1.24
same,Standard Deviation of the Current Range,[5],1.76
same,Standard Deviation of the Noise of the Signal,[5],0.26
same,Average Signal to Noise (S2N),[6],10.7
same,Mean Current Range,[6],14.4 pA
same,Mean Noise of the Signal,[6],1.35
same,Median Current Range,[6],14.3 pA
same,Median Noise of the Signal,[6],1.28
same,Median S2N,[6],11.9
same,Percentage of complement slipping forwards,[6],0.25%
same,Standard Deviation of S2N,[6],0.33
same,Standard Deviation of the Current Range,[6],1.79
same,Standard Deviation of the Noise of the Signal,[6],0.26
same,Average Signal to Noise (S2N),[7],13.1
same,Mean Current Range,[7],15.8 pA
same,Mean Noise of the Signal,[7],1.21
same,Median Current Range,[7],15.8 pA
same,Median Noise of the Signal,[7],1.13
same,Standard Deviation of the Current Range,[7],1.9 pA
same,Standard Deviation of the Noise of the Signal,[7],0.28
same,Average Signal to Noise (S2N),[8],12.3
same,Mean Current Range,[8],14.7 pA
same,Mean Noise of the Signal,[8],1.2
same,Median Current Range,[8],14.6 pA
same,Median Noise of the Signal,[8],1.17
same,Standard Deviation of the Current Range,[8],1.66 pA
same,Standard Deviation of the Noise of the Signal,[8],0.15
same,Average Signal to Noise (S2N),[9],12.8
same,Mean Current Range,[9],16.1 pA
same,Mean Noise of the Signal,[9],1.26
same,Median Current Range,[9],16.2 pA
same,Median Noise of the Signal,[9],1.22
same,Standard Deviation of the Current Range,[9],1.84 pA
same,Standard Deviation of the Noise of the Signal,[9],0.24
same,Average Signal to Noise (S2N),[10],10.7
same,Mean Current Range,[10],15.9 pA
same,Mean Noise of the Signal,[10],1.48
same,Median Current Range,[10],15.9 pA
same,Median Noise of the Signal,[10],1.43
same,Median S2N,[10],10.4
same,Percentage of complement slipping forwards,[10],0.3%
same,Standard Deviation of S2N,[10],0.66
same,Standard Deviation of the Current Range,[10],1.92 pA
same,Standard Deviation of the Noise of the Signal,[10],0.24
same,slips forward per kilobase,[10],less than 5 slips forward per kilobase
same,slips forward per kilobase,[11],less than 5 slips forward per kilobase
same,Average Signal to Noise (S2N),[12],11
same,Mean Current Range,[12],15 pA
same,Mean Noise of the Signal,[12],1.36
same,Median Current Range,[12],14.9 pA
same,Median Noise of the Signal,[12],1.32
same,Median S2N,[12],11.9
same,Percentage of complement slipping forwards,[12],0.27%
same,Standard Deviation of S2N,[12],1.17
same,Standard Deviation of the Current Range,[12],1.72
same,Standard Deviation of the Noise of the Signal,[12],0.23
same,Average Signal to Noise (S2N),[13],11.4
same,Mean Current Range,[13],15.7 pA
same,Mean Noise of the Signal,[13],1.37
same,Median Current Range,[13],15.7 pA
same,Median Noise of the Signal,[13],1.33
same,Median S2N,[13],11.8
same,Percentage of complement slipping forwards,[13],0.3%
same,Standard Deviation of S2N,[13],0.64
same,Standard Deviation of the Current Range,[13],1.81 pA
same,Standard Deviation of the Noise of the Signal,[13],0.22
same,Average Signal to Noise (S2N),[14],11.7
same,Mean Current Range,[14],15.6 pA
same,Mean Noise of the Signal,[14],1.33
same,Median Current Range,[14],15.6 pA
same,Median Noise of the Signal,[14],1.28
same,Median S2N,[14],12.3
same,Percentage of complement slipping forwards,[14],0.38%
same,Standard Deviation of S2N,[14],0.59
same,Standard Deviation of the Current Range,[14],1.92 pA
same,Standard Deviation of the Noise of the Signal,[14],0.24
same,slips forward per kilobase,[14],less than 5 slips forward per kilobase

# — patent US20240060126
